From PMC3694296, “11β-Hydroxysteroid dehydrogenase type 1 contributes to the balance between 7-keto- and 7-hydroxy-oxysterols in vivo” (Biochemical Pharmacology, 2013)

What was measured:
[1] = substrate: C[C@]12C[C@H](O)[C@H]3[C@@H](CCC4=CC(=O)CC[C@@]43C)[C@@H]1CC[C@@H]2C(=O)CO; assay: oxidation kinetics (Km) with recombinant enzyme, HPLC; format: biochemical, Mus musculus; settings: NADP+
[2] = substrate: C[C@]12CC(=O)[C@H]3[C@@H](CCC4=CC(=O)CC[C@@]43C)[C@@H]1CC[C@@H]2C(=O)CO; assay: reduction kinetics (Km) with recombinant enzyme, HPLC; format: biochemical, Mus musculus; settings: NADPH

B1: 11β-hydroxysteroid dehydrogenase type 1 (murine 11βHSD1, m11βHSD1) (Mus musculus) (protein)
chain: NEEFRPEMLQGKKVIVTGASKGIGREMAYHLSKMGAHVVLTARSEEGLQKVVSRCLELGAASAHYIAGTMEDMTFAEQFIVKAGKLMGGLDMLILNHITQTSLSLFHDDIHSVRRVMEVNFLSYVVMSTAALPMLKQSNGSIAVISSLAGKMTQPMIAPYSASKFALDGFFSTIRTELYITKVNVSITLCVLGLIDTETAMKEISGIINAQASPKEECALEIIKGTALRKSEVYYDKSPLTPILLGNPGRKIMEFFSLRYYNKDMFVSN
notes: truncated form of recombinant m11βHSD1 protein (N23Δ)
Km [1]: 1.78 ± 0.56 µM | Vmax [1]: 4.82 ± 0.65 pmol/µg/min | Vmax/Km [1]: 2.7 L/ug/min x 10^-6 | Km [2]: 0.20 ± 0.25 µM | Vmax [2]: 8.56 ± 4.06 pmol/µg/min | Vmax/Km [2]: 42.8 L/ug/min x 10^-6
